Source: the DeepSol protein solubility set

assay: soluble on expression in E. coli; label from the status in PepcDB or PDB records

Sequence | soluble on expression in E. coli
MGSDKIHHHHHHMALRIAFLTVGDPQRRTGGYLYHREVFRCWQARNQPVEEIVLGPADVAGQIAASNRAGQLVEAGRYDVIVVDALARAVVAPWLAHWQRLCPLVTLVHELPTVAGASDPREYEWEQMLLRADALVAVSDDGANTLIARGVEAARIHIASGGCDRLLSRMPVGKAREELVIAVAQWIPRKNLAHLVRVWGQVAEHPWRLELIGESDADPVYAGEVWQAIQHCPANVIVRGVLADDELAERYARASLFALPSRFEGYGLVFAEALACGLPVIAGAVGPVPALVGAGGMLVHPDDEQALSVALRTVMRDAHLRQHLSTAARQRASTLPRWQDTAQHLLCAIEWAYAQRHRVST | not soluble
FPSTYLSHRQETIGQKATAIAQSLEGKDRQSIEQVLDLYSQTSDIKGTVKGEMTEDKLEVKDSLPLDTDRQTTSLFIEEREVKTQDGGTMILQFLASMDLQKEAEQ | not soluble
MSIYEYFVKLHRYLLWQTKKIRALERRLHALEARLREMEAQPRTSIERIEYKFDQLKVETLEGTLNIGIAPPGAGGTIEDFAVEPVKTVIPKPEPVLMRPIQEKVAAYLNGEASETLKRLEQQYGRRLDDTYRQFILQDIARQTDERIRFYLQEKANHGYVPSGDRDEAVENEIFQKVKADIEQSLDAFLKHLPSKEGST | not soluble
SAKFSKQSWGLENEALIVRCPRQGKPSYTVDWYYSQTNKSIPTQERNRVFASGQLLKFLPAAVADSGIYTCIVRSPTFNRTGYANVTIYKKQSDCNVPDYLMYSTVSGSEKNSKIYCPTIDLYNWTAPLEWFKNCQALQGSRYRAHKSFLVIDNVMTEDAGDYTCKFIHNENGANYSVTATRSFTVKDEQGFSLFPVIGAPAQNEIKEVEIGKNANLTCSACFGKGTQFLAAVLWQLNGTKITDFGEPRIQQEEGQNQSFSNGLACLDMVLRIADVKEEDLLLQYDCLALNLHGLRRHTVRLSRKNPSKECF | soluble
MGSDKIHHHHHHMRYESSKKILVIEDDAVTRNLFLEVLEAQGFDTIGAEDGVAGIQKAQEHLPDLVICDIQMPDMDGYTVLARLRQDPHTAIIPFIFLTGSNTQTDVRKGMESGADDYLTKPSSIEDFLRAIAVRLEKQAFLRYWYATNSHQTAQSPPSSFNSESIFPSVPQLQAVFDFIEANYRQGITLSDVALAVGYSPAYLTNRVAKQTGETVNAWIVKRRMAAARPLLRDTNQTIDQIAIALGYQNTCHFSRQFRQHHGLSPKTWRKQQQLLQSSKNAKLQLIKNHDALEKLVPLGC | not soluble
MASNPNDLPDFPEHEYAATQQVGEGVINGDLYLTSASGAIQKGTNTKVTLEPATSYMKAYYAKFGNLDAAKRDPDVQPPVLDPRRATYVREATTDQNGRFDFDHIPNGTYYISSELTWSAQSDGKTITEGGTVTKLVTVSGSQPQKVLLTR | soluble
MRGSHHHHHHGSVTTKRYTLPPLPYAYNALEPYISAEIMQLHHQKHHQGYVNGANAALEKLEKFRKGEAQIDIRAVLRDLSFHLNGHILHSIFWPNMAPPGKGGGKPGGKIADLINKFFGSFEKFKEEFSQAAKNVEGVGWAILVYEPLEEQLLILQIEKHNLMHAADAQVLLALDVWEHAYYLQYKNDRGSYVDNWWNVVNWDDVERRLQKALNGQIALKL | soluble
MGSDKIHHHHHHMTKITVLSGKGGTGKTTVSVNMAKALSESYRVQLLDADVEEPNDHIFFNVDVSFEEPVHLMIPVVDNSVCIRCGECASTCQFGAISVFPSGTFVFESLCHGCGACSIMCPVNAISERPKEIGKIRFGTADGNISFGMGILNIGERTGVPVIRKLKKHIDEKADVVIVDAPPGTSCPVVESLRNTDFALLVTEPTAFGLHDLKLAVELTKEMGIPSGIVVNRYIPGNTIIEEFADEEGIPVLLKIPFKREIASLCAEGKLIVEAFQDMKKDFLELFEKIEVMVR | not soluble
DIRPSKLLTWCQQQTEGYQHVNVTDLTTSWRSGLALCAIIHRFRPELINFDSLNEDDAVENNQLAFDVAEREFGIPPVTTGKEMASAQEPDKLSMVMYLSKFYELFRGTPLRPV | soluble
MEKKVEAILEFDKIKKQLAEFASSSLGEQAIYELAPATDFQVVQKAQLETEEGAKIIRLRGSAPITGLTDVFAHLKRLEIGGDLNGLEIYQIGSNLRVSRQMKNFMNDLLEIGVEIPLLGALSDELLVLKDVEEDIAISIDESGKILDTASEALSSIRRTLRRTEDRVREKLESYLRDRNASKMLSDAVITIRNDRYVIPVKQEYKGHYGGIVHDQSASGQTLFIEPQSVVDLNNERKALQAKEKQEIERILAEISASLAGWINEIHHNTFILGRFDFILAKARFGKALKAVTPHLSDTGIVHLIAARHPLLDAEKVVANDIYLGEDFSTIVITGPNTGGKTITLKTLGLLTLMAQSGLQIPAQEDSTIAVFENVFADIGDEQSIEQSLSTFSSHMTNIVSILEKVNHKSLILYDELGAGTDPQEGAALAIAILDASHKKGASVVATTHYPELKAYGYNRAHATNASVEFNVETLSPTYKLLIGVPGRSNAFDISRRLGLSESIITEARSLVDTESADLNDMISSLEEKRNLAEREYEEARELARGADALLKDLQKEITNYYQQKDKLLEQANEKAAGIVEKAETEAEEIIHELRTMQLNGAAGIKEHELIDAKTRLGKAKPKTINKAIPKAPKQKPHVFQAGDNVRVLSLGQKGTLLNKISDKEWNVQIGIIKMKIKTTDLEYIEPEKPKKQRIITSVHSSDSPAKSELDLRGERYEDAIQKVDKYLDEALLAGYPQVAIIHGKGTGALRTGVTEYLKNHRMVKSIRFGAAAEGGNGVTIVEFKLEHHHHHH | not soluble
MQIDVDPQEDPQNAPDVNYVVENPTLDLEQYAASYSGLMRIERLQFIADRCPPLRVEALKMALSFVQRTFNVDMYEEIHRKLSEATRELQNAPDAIPESGVEPPPLDTAWVEATRKKALLKLEKLDTDLKNYKGNSIKESIRRGHDDLGDHYLDCGDLSNALKCYSRARDYCTSAKHVINMCLNVIKVSVYLQNWSHVLSYVSKAESTPEIAEQRGERDSQTQAILTKLKCAAGLAELAARKYKQAAKCFLLASFDHCDFPELLSPSNVAVYGGLCALATFDRQELQRNVISSSSFKLFLELEPQVRDIIFKFYESKYASCLKMLDEMKDNLLLDMYLAPHVRTLYTQIRNRALIQYFSPYVSADMHKMAAAFNTTVAALEDELTQLILEGLINARIDSHSKILYARDVDQRSTTFEKSLLMGKEFQRRAKAMILRAAVLRNQIHVKVKSLGCEGMGGTHTASTEPSLSTAVSS | not soluble
MSSHHHHHHSSGLVPRGSHMASMSDSEVNQEAKPEVKPEVKPETHINLKVSDGSSEIFFKIKKTTPLRRLMEAFAKRQGKEMDSLRFLYDGIRIQADQTPEDLDMEDNDIIEAHREQIGGSLMIIENSHVKKDDIWPSGGQMTVKDLTAKYTEGGNAILENISFSISPGQRVGLLGRTGSGKSTLLSAFLRLLNTEGEIQIDGVSWDSITLQQWRKAFGVIPQKVFIFSGTFRKNLDPYEQWSDQEIWKVADEVGLRSVIEQFPGKLDFVLVDGGCVLSHGHKQLMCLARSVLSKAKILLLDQPSAHLDPVTYQIIRRTLKQAFADCTVILCEHRIEAMLECQQFLVIEENKVRQYDSIQKLLNERSLFRQAISPSDRVKLFPHRNSSK | soluble
MSLILESLVTTLDEQGRINLAPLGPIVLPPQSPGGLPQFLLRPYEGSTTCDNLLASGNAVIHVIDDALLIAKTAIGKVDASDLVVPIPGLEDTHVRLKRCHRWFAVRVTQRAGTPPRHELTARCLASGLVDPFFGFNRAKHAVIEAAVAATRLHLLPPEEIEEELERARIAIEKTGGEPEREALQLIRRHVRESSISEGHHHHHH | soluble
MAHHHHHHMDMLHQIYALEYKRNTQRSDRIRDKDKTKIRILFIGGNEFSLLCFKVIRLIIKYVRNDIVLDHVITKSPRKKGRHLKLKKSHIEEEAEKEKIKIFYYDKIRNDTYMLKNETFDLCISASFGEIFNASFFKNIASNVYTLHPSLLPLYRGASPIQRSLLNNESLFGYSIFLTNLRIDAGPVLIRSPHTFGDAFNFNDIITILFTLGSLHLMRHIFFLANYKLGSTNGELQRTVESPNPSTISTHNNNKHLKIRHLLYDEENITPHNVKKKQFMLHTDIGQDKMNYAWLRNYLMLSSTHNNNTYAPKIKSEERYVCFFCSTALHIHNKVRGFINWPKVECTLYLVHKGGLKAMEVKLIKTSQESGDHISHQHLHQFKHLDALQSHKCFDGIPRKLAIFNRGAINILCKDNSLLKIYKLQRKNKKIMDASSFFNSINGVDLLY | not soluble
MAILLNRPTLSRLPWFPLRPEDFTTLLQTADFRLRLLEAIAAATRRVYICALYLENEEAGQEMLDALYRAKQRNPQLDVRVMVDWHRAQRGRIGEDQSHCNASWYREEAARRELDIPIYGVPVQTRELFGVLHLKGFVIDDTVFYSGASLNNVYLHKLDKYRFDRYHLIRSPELADAMAGFMAEQFFNDPAVFRLDKPTPSTRSIRKEIRQLRDKLSHSQYRPGSAHAAPDELAISPIVGIGKGNRLNRAILDVIAGAQRRLFICTPYFNFPRAVVLEINRALRRGVEIDIVVGDKTANDFYIPPEQPFRVIGALPYLYEMNLRRFAKRQRQYLSREQLRVRLWKDGDNTYHLKGIWSDDRFILLTGNNLNPRAFRLDLENALLLRDPQGALRGQSAAEQQSILRHTTQLSHYRQLEDVRAYPEQIKKLLTRLSRVRIDRMLNLMLLEHHHHHH | soluble
MGHHHHHHSHMACAEFSFHVPSLEELAGVMQKGLKDNFADVQVSVVDCPDLTKEPFTFPVKGICGKTRIAEVGGVPYLLPLVNQKKVYDLNKIAKEIKLPGAFILGAGAGPFQTLGFNSEFMPVIQTESEHKPPVNGSYFAHVNPADGGCLLEKYSEKCHDFQCALLANLFASEGQPGKVIEVKAKRRTGPLNFVTCMRETLEKHYGNKPIGMGGTFIIQKGKVKSHIMPAEFSSCPLNSDEEVNKWLHFYEMKAPLVCLPVFVSRDPGFDLRLEHTHFFSRHGEGGHYHYDTTPDIVEYLGYFLPAEFLYRIDQPKETHSIGRD | soluble
DPIGHLNKLPVAVVNSDTGVTKEGKTINAGEQITHSLVDQQQAKFIEVSADQARKGIADGTYYFAIEFPTDFSQAATSVKDPQPHQAKLNAVYNNANGFLATMLGNQVVGRVLAAVNENLGSQVANQLLVGFNTIGQGLGAAADGAGQLADGSHKAHDGADKLADGSTQLNNGLQQANDGAHKLYDGAGQLDQGIHTASNGADALADGLTKLNAATDTLGNGAGQVSAGVDKLVGVAQQASDAQAQLTVPLVNLSAQLRATGIPQAIDLANSADGIINSINAAGIGPQSDMMTQLSKLRNGASEIHRQLSDPTAQYRAGINSATEGAQKLSTGLHQLSDGSEKLVIGTKTLADGTTKLSAGSQQLTVGASQLSSGLVRLDEGASELSLKLGESKDKIPQFPDDTIADSARNVSTPVAENVARDSLS | not soluble
MVRVVIESELVRTEKELPNSLKLRQFKDRLYHVTGVEPEDMEIVVKRQYDNKEIYSTKKGGAYSNEDEDANFLKGEEELIVVVTDSNAQSISNQLATQAEGIPSMEVISEEDYLRRDQSVLRWKMAHGYGRFNAAQQSQRAALAKQDEAYAREQLTAAIGRHCRVTVDGSAPREAILRYVGPLPLDVMGTWCGVEFPEAAGKNDGRINGVTLFGPVAPGHGSFVRPRAVEILSKDEESAEVEDVHDDVESDDEI | soluble
SPLELELCPGRWVGGQHPCFIIAEIGQNHQGDLDVAKRMIRMAKECGADCAKFQKSELEFKFNRKALDRPYTSKHSWGKTYGEHKRHLEFSHDQYRELQRYAEEVGIFFTASGMDEMAVEFLHELNVPFFKVGSGDTNNFPYLEKTAKKGRPMVISSGMQSMDTMKQVYQIVKPLNPNFCFLQCTSAYPLQPEDVNLRVISEYQKLFPDIPIGYSGHETGIAISVAAVALGAKVLERHITLDKTWKGSDHSASLEPGELAELVRSVRLVERALGSPTKQLLPCEMACNEKLGKSVVAKVKIPEGTILTMDMLTVKVGEPKGYPPEDIFNLVGKKVLVTVEEDDTIMEELVDNHGKKIKS | soluble
